Assay results: PMC10746227, “The two-component system WalKR provides an essential link between cell wall homeostasis and DNA replication in Staphylococcus aureus” (mBio, 2023)

Biological target: T1, WalK-LgBIT (native WalK) (S. aureus, UniProt Q2FKN7 1-608)
T1 construct: WalK, transmembrane sensor histidine kinase of the WalKR two-component system, S. aureus NRS384 (USA300); open reading frame with the stop codon removed; also called WalK Wt; source: S. aureus NRS384, from plasmid pLgBIT, in living cells
T1 sequence (looked up): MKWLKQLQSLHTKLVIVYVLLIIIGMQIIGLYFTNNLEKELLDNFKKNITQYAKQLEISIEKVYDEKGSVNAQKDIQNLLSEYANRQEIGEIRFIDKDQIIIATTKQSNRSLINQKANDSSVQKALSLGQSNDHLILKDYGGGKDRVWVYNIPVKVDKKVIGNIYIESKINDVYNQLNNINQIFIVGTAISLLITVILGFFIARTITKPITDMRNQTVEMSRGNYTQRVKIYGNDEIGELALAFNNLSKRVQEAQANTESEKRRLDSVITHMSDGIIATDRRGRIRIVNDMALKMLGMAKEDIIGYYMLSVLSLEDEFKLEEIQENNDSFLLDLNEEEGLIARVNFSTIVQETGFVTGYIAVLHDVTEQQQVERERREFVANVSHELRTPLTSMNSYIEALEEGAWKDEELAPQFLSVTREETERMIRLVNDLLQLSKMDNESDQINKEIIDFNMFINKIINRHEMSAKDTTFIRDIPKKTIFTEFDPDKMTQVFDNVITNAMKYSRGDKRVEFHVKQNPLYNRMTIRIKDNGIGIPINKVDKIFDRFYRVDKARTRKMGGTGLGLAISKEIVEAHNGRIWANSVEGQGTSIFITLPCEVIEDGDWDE
Experiment: split reporter (BiFC, NanoBiT); WalR-SmBIT (pSmBIT) and WalK-LgBIT (pLgBIT) alleles together in living S. aureus NRS384; LB with chloramphenicol, kanamycin and Nano-Glo substrate 1:5,000, 37°C, 96-well plate; OD600nm and light emission (RLU) read every 10 min over 8 h; lag and exponential phase
Conditions: partners not purified

B1: WalR_(T101A)-SmBIT (natural protein)
chain: MARKVVVVDDEKPIADILEFNLKKEGYDVYCAYDGNDAVDLIYEEEPDIVLLDIMLPGRDGMEVCREVRKKYEMPIIMLTAKDSEIDKVLGLELGADDYVAKPFSTRELIARVKANLRRHYSQPAQDTGNVTNEITIKDIVIYPDAYSIKKRGEDIELTHREFELFHYLSKHMGQVMTREHLLQTVWGYDYFGDVRTVDVTIRRLREKIEDDPSHPEYIVTRRGVGYFLQQHE
notes: WalR, response regulator, S. aureus NRS384 (USA300); open reading frame with the stop codon removed; also called "down" mutant; source: S. aureus NRS384, from plasmid pSmBIT, in living cells
  fold change of the maximal level of interaction against native WalK/WalR: 1.5 fold
